The values that follow come from the supplement of paper PMC10567573.

B1: SLC6A17 (parent)
chain: KAVEEELDAEDRPAWNSKLQYILA
B2: CDKN1A (parent)
chain: GRKRRQTSMTDFYHSKRRLIFSKR
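Also: lentivirally expressed fusions sorted by FACS into six bins by GFP to DsRed ratio, PSI derived from sequencing read proportions per bin multiplied by bin number.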

The first data set covers variants of B1. In words: protein stability index of a GFP-peptide fusion (GPS, HEK-293T) (PSI 1-6); higher = more stable. The following applies: c terminus: a fixed tail appended.
With KAVEEVLDAEDRPAWNSKLQYILA [E6V], the protein stability index was 2.13.

Take KAVEEILDAEDRPAWNSKLQYILA [E6I]: the protein stability index was 1.47. As to KAVEECLDAEDRPAWNSKLQYILA [E6C], the protein stability index is 2.07. For the variant KAVEEHLDAEDRPAWNSKLQYILA [E6H], the protein stability index is 2.55. On to KAVEEYLDAEDRPAWNSKLQYILA [E6Y], for which the protein stability index amounted to 2.65.

With KAVEEMLDAEDRPAWNSKLQYILA [E6M], the protein stability index stood at 1.5. Turning to KAVEEELDDEDRPAWNSKLQYILA [A9D], the protein stability index was 2.38. For KAVEEELDKEDRPAWNSKLQYILA [A9K], the protein stability index amounted to 3.15. Consider KAVEEELDWEDRPAWNSKLQYILA [A9W], for which the protein stability index stood at 2.06. Consider KAVEEELDLEDRPAWNSKLQYILA [A9L], for which the protein stability index came to 2.33.

In the case of KAVEEELDIEDRPAWNSKLQYILA [A9I], the protein stability index came out at 2.02. Consider KAVEEELDVEDRPAWNSKLQYILA [A9V], for which the protein stability index is 3.1.

Regarding KAVEEELDMEDRPAWNSKLQYILA [A9M], the protein stability index turned out to be 1.73. Take KAVEEELDFEDRPAWNSKLQYILA [A9F]: the protein stability index was determined as 1.95. With KAVEEELDAEDRPAWNSKLRYILA [Q20R], the protein stability index was 3.39. With KAVEEELDAEDRPAWNSKLGYILA [Q20G], the protein stability index stood at 2.32.

Take KAVEEELDAEDRPAWNSKLTYILA [Q20T]: the protein stability index stood at 2.25. Regarding KAVEEELDAEDRPAWNSKLKYILA [Q20K], the protein stability index was 2.92. With KAVEEELDAEDRPAWNSKLYYILA [Q20Y], the protein stability index is 2.4. Still for that read-out and setting: for KAVEEELDAEDRPAWNSKLVYILA [Q20V] the value was 2.13; for KAVEEELDAEDRPAWNSKLAYILA [Q20A], 2.06; for KAVEEELDAEDRPAINSKLQYILA [W15I], 3.69. On the same count and under the same terms, the value for KAVEEELDAEDRPACNSKLQYILA [W15C] was 3.64. Turning to KAVEEELDAEDRPAGNSKLQYILA [W15G], the protein stability index amounted to 3.82.

For KAVEEELDAEDRPAENSKLQYILA [W15E], the protein stability index was found to be 4.65. With KAVEEELDAEDRPAVNSKLQYILA [W15V], the protein stability index is 2.2. Take KAVEEELDAEDRPADNSKLQYILA [W15D]: the protein stability index amounted to 3.94. Take KAVEEELDAEDRPALNSKLQYILA [W15L]: the protein stability index was 2.52. Regarding DAVEEELDAEDRPAWNSKLQYILA [K1D], the protein stability index stood at 2.96.

For GAVEEELDAEDRPAWNSKLQYILA [K1G], the protein stability index was determined as 3.25.

For EAVEEELDAEDRPAWNSKLQYILA [K1E], the protein stability index is 3.19. SAVEEELDAEDRPAWNSKLQYILA [K1S]: the protein stability index came to 3.24. For CAVEEELDAEDRPAWNSKLQYILA [K1C], the protein stability index was 1.62.

With NAVEEELDAEDRPAWNSKLQYILA [K1N], the protein stability index is 3.17. In the case of LAVEEELDAEDRPAWNSKLQYILA [K1L], the protein stability index came out at 2.08. For HAVEEELDAEDRPAWNSKLQYILA [K1H], the protein stability index turned out to be 2.83. Consider KAVEEELDAEDRPAWNSALQYILA [K18A], for which the protein stability index was 3.16. As for KAVEEELDAEDRPAWNSELQYILA [K18E], the protein stability index worked out at 3.76.

For the variant KAVEEELDAEDRPAWNSMLQYILA [K18M], the protein stability index came out at 2.27. Consider KAVEEELDAEDRPAWNSCLQYILA [K18C], for which the protein stability index came to 3.19. In the case of KAVEEELDAEDRPAWNSILQYILA [K18I], the protein stability index was found to be 2.13. KAVEEELDAEDRPAWNSHLQYILA [K18H]: the protein stability index came to 2.7. KAVEEELDAEDRPAWNSYLQYILA [K18Y]: the protein stability index stood at 3.15. With KAVEEELDAEDRPAWNSRLQYILA [K18R], the protein stability index amounted to 2.69.

On to KAVEEELDAEDRPAWNSVLQYILA [K18V], for which the protein stability index turned out to be 1.64. In the case of KAVEEELDAEDRPAWNSQLQYILA [K18Q], the protein stability index came out at 3.22.

Regarding KAVEEELDAEDRPAWNSSLQYILA [K18S], the protein stability index was 3.07. Still for that read-out and setting: the value for KAVEEELDAEDRPAWNSKLQYWLA [I22W] was 2.9; that for KAVEEELDAEDRPAWNSKLQYHLA [I22H] was 4.5; that for KAVEEELDAEDRPAWNSKLQYYLA [I22Y] was 3.94. Regarding KAVEEELDAEDRPAWNSKLQYGLA [I22G], the protein stability index was found to be 4.06.

As to KAVEEELDAEDRPAWNSKLQYELA [I22E], the protein stability index was 5.01. On to KAVEEELDAEDRPAWNTKLQYILA [S17T], for which the protein stability index amounted to 2.25. As for KAVEEELDAEDRPAWNKKLQYILA [S17K], the protein stability index was 2.19. KAVEEELDAEDRPAWNCKLQYILA [S17C]: the protein stability index is 1.99. The same measure, in the same setting: for KAVEEELDAEDRPAWNFKLQYILA [S17F] the value was 2.5; for KAVEEELDAEDRPAWNPKLQYILA [S17P], 2.97. As for KAVEEELDAEDRPAWNIKLQYILA [S17I], the protein stability index amounted to 1.83. With KAVEEELDAEDRPAWNSKLQYILR [A24R], the protein stability index was determined as 3.27.

Take KAVEEELDAEDRPAWNSKLQYILL [A24L]: the protein stability index was 2.28.

Regarding KAVEEELDAEDRPAWNSKLQYILK [A24K], the protein stability index stood at 3.08. On the same count and under the same terms, for KAVEEELDAEDRPAWNSKLQYILD [A24D] the value was 3.55; for KAVEEELDAEDRPAWNSKLQYILE [A24E], 2.63.

On to KAVEEEFDAEDRPAWNSKLQYILA [L7F], for which the protein stability index amounted to 2.23.

For the variant KAVEEEMDAEDRPAWNSKLQYILA [L7M], the protein stability index is 2.98. Consider KAVEEEQDAEDRPAWNSKLQYILA [L7Q], for which the protein stability index was found to be 2.53. In the case of KAVEEEKDAEDRPAWNSKLQYILA [L7K], the protein stability index amounted to 2.85. Same read-out and setting: for KAVEEETDAEDRPAWNSKLQYILA [L7T] the value was 3.1; for KAVEEEADAEDRPAWNSKLQYILA [L7A], 3.74. For KAVEEEEDAEDRPAWNSKLQYILA [L7E], the protein stability index turned out to be 3.21. In the case of KAVEEECDAEDRPAWNSKLQYILA [L7C], the protein stability index worked out at 3.5.

With KAVEEEYDAEDRPAWNSKLQYILA [L7Y], the protein stability index amounted to 2.51. As to KAVEEEGDAEDRPAWNSKLQYILA [L7G], the protein stability index amounted to 4.11. With KAVEEEVDAEDRPAWNSKLQYILA [L7V], the protein stability index came to 2.9. Take KAVEEEIDAEDRPAWNSKLQYILA [L7I]: the protein stability index turned out to be 2.08. In the case of KANEEELDAEDRPAWNSKLQYILA [V3N], the protein stability index worked out at 3.07. Regarding KASEEELDAEDRPAWNSKLQYILA [V3S], the protein stability index is 2.65.

In the case of KAPEEELDAEDRPAWNSKLQYILA [V3P], the protein stability index came out at 2.58. Same read-out and setting: for KAGEEELDAEDRPAWNSKLQYILA [V3G] the value was 2.79; for KAMEEELDAEDRPAWNSKLQYILA [V3M], 2.19.

As to KATEEELDAEDRPAWNSKLQYILA [V3T], the protein stability index amounted to 2.43.

Turning to KAREEELDAEDRPAWNSKLQYILA [V3R], the protein stability index came to 3.14. In the case of KAIEEELDAEDRPAWNSKLQYILA [V3I], the protein stability index stood at 2.41.

KAVEEELDAEDRPSWNSKLQYILA [A14S]: the protein stability index stood at 4.07. In the case of KAVEEELDAEDRPKWNSKLQYILA [A14K], the protein stability index was found to be 2.62.

With KAVEEELDAEDRPGWNSKLQYILA [A14G], the protein stability index is 2.35. The same measure, in the same setting: the value for KAVEEELDAEDRPVWNSKLQYILA [A14V] was 2.38. In the case of KAVEEELDAEDRPIWNSKLQYILA [A14I], the protein stability index is 2.5.

Consider KAVEEELDAEDRPPWNSKLQYILA [A14P], for which the protein stability index was found to be 2.46.

The next data set covers variants of B2. Described as above. As to conditions: c terminus: a fixed tail appended.
On to G1C, for which the protein stability index was determined as 3.45. The same measure, in the same setting: for G1H the value was 3.16; for G1A, 2.81; for G1D, 3.06. As for G1I, the protein stability index amounted to 2.94. For G1F, the protein stability index was 2.85. Still for that read-out and setting: for G1E the value was 3.02.
